Target: wild-type pyruvate kinase isoform M2 (PKM2^WT) (human) (UniProt P14618)
Assay: SEC; gel filtration on Superdex 200 10/300 GL, in the absence of FBP; low protein concentration (less than 0.2 mg/mL); similar protein concentrations and conditions for all proteins; oxalate added in a further run (Fig. S1F)

wild-type pyruvate kinase isoform M2 (PKM2^WT), P14618 1-531 (enzyme; other documents disagree on this pair), sequence (P14618 whole entry, canonical isoform): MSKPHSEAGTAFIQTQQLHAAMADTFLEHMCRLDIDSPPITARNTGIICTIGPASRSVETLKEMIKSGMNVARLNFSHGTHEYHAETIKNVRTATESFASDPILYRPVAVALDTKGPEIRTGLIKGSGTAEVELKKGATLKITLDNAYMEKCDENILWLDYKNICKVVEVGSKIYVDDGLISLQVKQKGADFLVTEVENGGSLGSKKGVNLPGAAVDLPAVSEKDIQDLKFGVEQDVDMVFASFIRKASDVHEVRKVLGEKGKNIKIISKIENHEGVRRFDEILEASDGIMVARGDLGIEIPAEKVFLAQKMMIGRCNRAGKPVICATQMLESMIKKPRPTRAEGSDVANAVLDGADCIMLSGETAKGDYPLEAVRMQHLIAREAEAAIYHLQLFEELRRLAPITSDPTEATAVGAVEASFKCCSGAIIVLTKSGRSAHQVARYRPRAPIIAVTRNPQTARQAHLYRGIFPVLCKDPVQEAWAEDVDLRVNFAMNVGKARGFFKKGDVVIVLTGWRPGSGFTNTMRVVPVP

wild-type pyruvate kinase isoform M2 (PKM2^WT), P14618 1-531 (enzyme; other documents disagree on this pair)
stoichiometry N: 2
